CN111018979A (DONGGUAN PENGZHI BIOTECHNOLOGY CO LTD, dated 2020)

Molecular target: T1, cTnI质控品重组蛋白 (recombinant cardiac troponin I quality-control antigen, made in-house) (human, UniProt P19429 1-210, limits assumed)
T1 construct: The assay paragraph says only 'cTnI质控品重组蛋白(公司自产重组抗原)', so the limits of the construct are unknown; also called 心肌肌钙蛋白I; cTnI质控品重组抗原
Test: BLI, antibody held on AMC sensor, cTnI recombinant protein in solution in a dilution series

T1 sequence (P19429 whole entry): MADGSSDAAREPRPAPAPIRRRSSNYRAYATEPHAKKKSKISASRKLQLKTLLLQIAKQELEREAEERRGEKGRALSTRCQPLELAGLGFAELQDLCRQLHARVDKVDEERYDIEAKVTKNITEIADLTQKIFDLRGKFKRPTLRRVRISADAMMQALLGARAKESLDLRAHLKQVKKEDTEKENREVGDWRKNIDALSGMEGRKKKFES

Kd: 64.8 nM
koff: 0.0027 s⁻¹
kon: 41700 M⁻¹ s⁻¹
B1: Anti-cTnI 2E7 recombinant antibody (sample 1 of Example 1) (antibody, V domains shown)
VH: QVQLQQPGAELVRPGASVKLSCKASDYTFSSYWMQWVKQRPGQGLEWIGMLDPSDSETHYNQLFKDKATLTVDKSSNTAYMQLSSLTSEDSAVYFCAFLTSLGDYWGQGTTLTVSS
VL: DVLMTQTPLSLPVSLGDQASISCRSSQSIIHSQGNSYLEWYLQKPGQSPKLLLYKVSQRLSGVPDRFSGSGSGTDFTLKISRVEAEDLGVYYCFNGSHLPITFGAGTKLELK
